Target: T1, recombinant ICAD protein, O00273
T1 chain: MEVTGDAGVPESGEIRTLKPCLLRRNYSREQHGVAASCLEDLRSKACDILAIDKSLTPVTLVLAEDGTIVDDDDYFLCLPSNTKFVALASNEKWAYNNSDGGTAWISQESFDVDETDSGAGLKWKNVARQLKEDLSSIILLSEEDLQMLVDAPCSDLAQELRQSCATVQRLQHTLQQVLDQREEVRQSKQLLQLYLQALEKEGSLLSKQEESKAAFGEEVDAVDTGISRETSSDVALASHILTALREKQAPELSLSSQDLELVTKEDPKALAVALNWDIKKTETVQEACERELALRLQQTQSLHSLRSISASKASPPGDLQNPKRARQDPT

B1: purified caspase-14 from human cornified cells (heterodimer of large subunit 17 KDa and small subunit 11 KDa) (protein)
chain 1: SLEEEKYDMSGARLALILCVTKAREGSEEDLDALEHMFRQLRFESTMKRDPTAEQFQEELEKFQQAIDSREDPVSCAFVVLMAHGREGFLKGEDGEMVKLENLFEALNNKNCQALRAKPKVYIIQACRGEQRDPGETVGGD
chain 2: KDSPQTIPTYTDALHVYSTVEGYIAYRHDQKGSCFIQTLVDVFTKRKGHILELLTEVTRRMAEAELVQEGKARKTNPEIQSTLRKRLYLQ
  ICAD decomposition by caspase-14 in the presence of a kosmotropic salt (Western blot with anti-ICAD IgG): intact ICAD protein was reduced and the two major decomposition products were increased, thus indicating that purified caspase-14 has a limited decomposing effect on ICAD
  ICAD hydrolysis by caspase-14 in ordinary caspase assay buffer (Western blot with anti-ICAD IgG): showed absolutely no hydrolytic activity of the purified caspase-14 for ICAD

— patent US20090233319
